B1: hsSUN2_(522-717), wild type, as crystallised with KASH4 (domain or fragment, human, UniProt Q9UH99 522-717, looked up)
chain: GVTEEQVHHIVKQALQRYSEDRIGLADYALESGGASVISTRCSETYETKTALLSLFGIPLWYHSQSPRVILQPDVHPGNCWAFQGPQGFAVVRLSARIRPTAVTLEHVPKALSPNSTISSAPKDFAIFGFDEDLQQEGTLLGKFTYDQDGEPIQTFHFQAPTMATYQVVELRILTNWGHPEYTCIYRFRVHGEPAH
B2: hsSUN2_(522-717) with 4 surface point mutations Q534D, T683G, M684R, A685G (domain or fragment, human, UniProt Q9UH99 522-717, looked up)
chain: GVTEEQVHHIVKDALQRYSEDRIGLADYALESGGASVISTRCSETYETKTALLSLFGIPLWYHSQSPRVILQPDVHPGNCWAFQGPQGFAVVRLSARIRPTAVTLEHVPKALSPNSTISSAPKDFAIFGFDEDLQQEGTLLGKFTYDQDGEPIQTFHFQAPGRGTYQVVELRILTNWGHPEYTCIYRFRVHGEPAH
B3: apo-SUN2_(500-717) (domain or fragment, human, UniProt Q9UH99 500-717, looked up)
chain: QGKSAREAAASLSLTLQKEGVIGVTEEQVHHIVKQALQRYSEDRIGLADYALESGGASVISTRCSETYETKTALLSLFGIPLWYHSQSPRVILQPDVHPGNCWAFQGPQGFAVVRLSARIRPTAVTLEHVPKALSPNSTISSAPKDFAIFGFDEDLQQEGTLLGKFTYDQDGEPIQTFHFQAPTMATYQVVELRILTNWGHPEYTCIYRFRVHGEPAH

Molecular target: the molecule itself
Test: crystal structure

How did the “stoichiometry N” value turn out when B1 was run?
Its value is 3.

For B2, which “stoichiometry N” value is on record?
Its value is 3.

How did the “stoichiometry N” value turn out when B3 was run?
Its value is 3.

Source: publication PMC11552096 (Journal of molecular biology, 2020)
